The values that follow come from publication PMC2864300, “Regulation of NOXO1 Activity through Reversible Interactions with p22^phox and NOXA1” (PLoS ONE, 2010).

B3: mouse NOXA1 SH3 domain (domain or fragment, UniProt Q8CJ00 369-428, looked up)
chain: PVLYQVVAQYNYRAQRPEDLDFHQGDTVDVLCEVDEAWLEGHRDGCVGIFPKCFVVPAGA
notes: mouse NOXA1, carboxy-terminal SH3 domain; source: E. coli BL21 STAR, purified (glutathione Sepharose, PreScission cleavage, Superdex 75)
B4: human NOXA1 SH3 domain (domain or fragment, UniProt Q86UR1 399-458, looked up)
chain: PVLYQVVAQHSYSAQGPEDLGFRQGDTVDVLCEVDQAWLEGHCDGRIGIFPKCFVVPAGP
notes: human NOXA1, carboxy-terminal SH3 domain; source: E. coli BL21 STAR, purified (glutathione Sepharose, PreScission cleavage, Superdex 75)
B5: human NOXO1 SH3AB–E (tandem SH3 domains plus the C-terminal portion of NOXO1) (domain or fragment)
chain: LEAQSLRCLQPFCTQDTRDRPFQAQAQESLDVLLRHPSGWWLVENEDRQTAWFPAPYLEEAAPGQGREGGPSLGSSGPQFCASRAYESSRADELSVPAGARVRVLETSDRGWWLCRYGDRAGLLPAVLLRPEGLGALLSGTGFRGGDDPAGEARGFPEPSQATAPPPTVPTRPSPGAIQSRCCTVTRRALERRPRRQGRPRGCVDSVPHPTTEQ

Common to all, as to assay: ITC; MicroCal VP-ITC, 18°C; 150 mM NaCl, 1 mM DTT, 50 mM HEPES pH 7.4; typically 20–40 µM protein in the cell, 200–300 µM ligand injected; single-site binding model; averaged over three to five experiments
What all share (settings): both partners purified
Background: In ITC the heat of successive injections is recorded.

The assay “human NOXA1 SH3 domain” deals with B4.
The target of the assay “mouse NOXA1 SH3 domain” is B3.
Assay [1] addresses T1, mouse NOXO1 SH3AB–E (tandem SH3 domains plus the C-terminal portion of NOXO1) (mouse, UniProt Q8VCM2 160-349).
T1 construct: mouse NOXO1, tandem SH3 domains plus the C-terminal portion; source: E. coli BL21 STAR, purified (glutathione Sepharose, PreScission cleavage, Superdex 75)
T1 sequence (looked up): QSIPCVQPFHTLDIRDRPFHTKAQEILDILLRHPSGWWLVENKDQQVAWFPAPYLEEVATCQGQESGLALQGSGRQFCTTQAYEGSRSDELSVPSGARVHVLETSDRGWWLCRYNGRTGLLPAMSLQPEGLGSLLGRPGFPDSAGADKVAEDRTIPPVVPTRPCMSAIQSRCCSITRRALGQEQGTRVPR

The target in assay [2] is B5.
Assay [3] deals with T2, human p22^phox cytoplasmic domain (p22^phoxC) (human).
T2 construct: human p22phox, cytoplasmic domain; source: E. coli BL21 STAR, purified (glutathione Sepharose, PreScission cleavage, Superdex 75)
T2 sequence (P13498 whole entry, looked up): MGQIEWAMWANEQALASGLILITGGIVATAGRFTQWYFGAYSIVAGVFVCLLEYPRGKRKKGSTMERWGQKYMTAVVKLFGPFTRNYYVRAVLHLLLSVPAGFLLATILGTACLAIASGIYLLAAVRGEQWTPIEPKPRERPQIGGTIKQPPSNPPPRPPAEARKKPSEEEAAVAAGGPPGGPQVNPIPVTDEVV

Assay [4] addresses T1, mouse NOXO1 SH3AB–E (tandem SH3 domains …). This is another data set of the same source.

B1: shorter version of peptideA, which only contains the proline rich region (peptide)
peptide: TAPPPTVPTRPS
notes: also called PeptideA-short; short proline-rich motif-containing version of peptideA; source: synthetic peptide
With B1, the Kd with human NOXA1 SH3 domain was greater than 70 µM.

B2: peptideA (amino acids 319–347 of human NOXO1) (peptide)
peptide: TAPPPTVPTRPSPGAIQSRCCTVTRRALE
notes: also called long version of peptideA; source: synthetic peptide
Regarding B2, the Kd was determined as 5.8 µM with human NOXA1 SH3 domain and 5.9 µM with mouse NOXA1 SH3 domain. The dH with human NOXA1 SH3 domain is -12.6 ± 0.6 kcal/mol; in the assay with mouse NOXA1 SH3 domain, -7.6 ± 0.3 kcal/mol.
Take B3: in assay [1], the Kd was found to be 2.2 µM and the dH is -10.1 ± 0.8 kcal/mol.
Take B4: the dH in assay [2] is -8.6 ± 0.7 kcal/mol.
As for B5, the Kd with human NOXA1 SH3 domain was 7.2 µM; in assay [3] it was 17.5 µM.

B6: mouse p22^phox cytoplasmic domain (p22^phoxC) (domain or fragment, UniProt Q61462 127-192, looked up)
chain: RGEQWTPIEPKPKERPQVGGTIKQPPTNPPPRPPAEVRKKPSEGEEEAASAGGPQVNPMPVTDEVV
notes: mouse p22phox, cytoplasmic domain; also called murine p22^phox; source: E. coli BL21 STAR, purified (glutathione Sepharose, PreScission cleavage, Superdex 75)
For the molecule B6, in assay [4], the Kd worked out at 0.78 µM and the dH was -7.1 ± 0.05 kcal/mol.

In general, Kd refers to the constant that tells how readily two partners part at equilibrium.
